Data published in article PMC5750225, “Inhibition of Poly(A)-binding protein with a synthetic RNA mimic reduces pain sensitization in mice”.

B1: unmodified 12-base Poly(A) RNA (ssRNA)
RNA: AAAAAAAAAAAA
B2: Poly(A) SPOT-ON (XNA)
strand: AAAAAAAAAAAA
modifications: 2'-O-methyl throughout; phosphorothioate at the 5' and 3' terminal linkages (A*AAAAAAAAAA*A)

Target: PABP (PABPC1) (Homo sapiens, UniProt P11940 1-383)
Experiment: fluorescence polarization/anisotropy; text gives nM; Fig. 2d legend prints μM; FP: 50 mM HEPES, 5 mM EDTA, 250 mM KCl, 10 mM DTT, 0.5 mg/mL BSA, 0.05% Tween-20, 0.1 mg/mL yeast RNA, 0.5 nM Cy3-RNA (pH and temperature not stated). EMSA: 10
Conditions: protein: recombinant

PABP (PABPC1), sequence (P11940 1-383): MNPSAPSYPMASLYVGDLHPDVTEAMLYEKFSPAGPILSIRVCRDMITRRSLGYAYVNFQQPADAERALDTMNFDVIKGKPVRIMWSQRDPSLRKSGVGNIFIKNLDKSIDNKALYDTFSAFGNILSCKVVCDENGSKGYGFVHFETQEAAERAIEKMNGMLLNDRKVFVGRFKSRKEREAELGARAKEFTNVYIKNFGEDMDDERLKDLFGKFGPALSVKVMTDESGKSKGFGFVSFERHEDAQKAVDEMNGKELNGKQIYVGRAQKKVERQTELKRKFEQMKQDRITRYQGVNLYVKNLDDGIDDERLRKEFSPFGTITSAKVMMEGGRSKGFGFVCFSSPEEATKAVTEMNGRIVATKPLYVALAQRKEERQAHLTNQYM

Row | Binder | Kd
1 | B1 | 0.261 ± 0.054 µM
2 | B2 | 0.301 ± 0.041 µM
